Reference: PMC3032424

Biological target: mouse hemoglobin (mouse) (UniProt P01942)
Test: BLI

**Q.** Which Kd does the source give for “recombinant IsdB (from UniProt A6QG30 41-613) (receptor)” here?
**A.** The Kd was 980 nM.
